Results: US20250283885A1, “MODULAR BIOSENSOR FOR RECEPTOR TYROSINE KINASE ACTIVITY” (The Trustees of Princeton University, priority 2024, published 2025)

Tests used:
[1] = target: EGFR (Homo sapiens, UniProt P00533); experiment: EGFR pYtag live-cell imaging: clearance of cytosolic ZtSH2 in NIH 3T3 cells; conditions: varying doses, NIH 3T3 EGFR pYtag
Excerpt: Six ITAMs from the CD3γ, CD3δ, CD3ε, and CD3ζ chains of the TCR. In each case, three identical repeats of the ITAM were fused to the C-terminal tail of EGFR followed by the FusionRed fluorescent protein (EGFR-ITAM-FusionRed). Each receptor was the co-expressed with an iRFP-labeled ZtSH2 (iRFP-ZtSH2) in NIH 3T3 fibroblasts, which express negligible levels of EGFR. […] Because ZtSH2 can in principle be recruited rapidly on and off the membrane and may localize to distinct subcellular compartments, it was reasoned that pYtags could be used to monitor the subcellular activity of an RTK in individual cells over time.

[2] = target: T1, FGFR1 (Homo sapiens, UniProt P11362); experiment: FGFR1 pYtag in NIH 3T3 cells: clearance of cytosolic ZtSH2; type: cell-based; conditions: not in cells with ITAM-less FGFR1
T1 construct: expressed in transfected cells; host or cells: NIH 3T3 cells expressing iRFP-ZtSH2
Method: One advantage of the pYtag approach is its modularity: ITAMs can in principle be fused to the C-termini of many different RTKs and recruit ZtSH2 upon stimulation. Therefore, it was tested whether pYtags could be adapted to monitor the activity of receptors other than EGFR. pYtag biosensors were designed for two additional RTKs: 1) ErbB2, a ligandless member of the ErbB family that signals by heterodimerizing with ligand-bound EGFR; and 2) fibroblast growth factor receptor 1 (FGFR1), a non-ErbB family RTK. ErbB2 is a particularly challenging RTK to study because it can only be activated in conjunction with an additional RTK (e.g., EGFR), so Grb2-based biosensors would be unable to distinguish between the activity of EGFR and ErbB2.
Starting from NIH 3T3 cells expressing iRFP-ZtSH2, cell lines expressing either an ErbB2 pYtag (ErbB2-CD3ε-FusionRed), an FGFR1 pYtag (FGFR1-CD3ε-FusionRed), or ITAM-less variants of each were generated. For the ErbB2 case, cells with EGFR-Citrine were further transduced to express both required components of a functional receptor heterodimer (see FIG. 3, and FIGS. 4A-4B).
The pYtag approach is indeed modular, and this strategy can be readily adapted for monitoring the activation of distinct RTKs in individual cells.

T1 sequence (P11362 22-822, species assumed): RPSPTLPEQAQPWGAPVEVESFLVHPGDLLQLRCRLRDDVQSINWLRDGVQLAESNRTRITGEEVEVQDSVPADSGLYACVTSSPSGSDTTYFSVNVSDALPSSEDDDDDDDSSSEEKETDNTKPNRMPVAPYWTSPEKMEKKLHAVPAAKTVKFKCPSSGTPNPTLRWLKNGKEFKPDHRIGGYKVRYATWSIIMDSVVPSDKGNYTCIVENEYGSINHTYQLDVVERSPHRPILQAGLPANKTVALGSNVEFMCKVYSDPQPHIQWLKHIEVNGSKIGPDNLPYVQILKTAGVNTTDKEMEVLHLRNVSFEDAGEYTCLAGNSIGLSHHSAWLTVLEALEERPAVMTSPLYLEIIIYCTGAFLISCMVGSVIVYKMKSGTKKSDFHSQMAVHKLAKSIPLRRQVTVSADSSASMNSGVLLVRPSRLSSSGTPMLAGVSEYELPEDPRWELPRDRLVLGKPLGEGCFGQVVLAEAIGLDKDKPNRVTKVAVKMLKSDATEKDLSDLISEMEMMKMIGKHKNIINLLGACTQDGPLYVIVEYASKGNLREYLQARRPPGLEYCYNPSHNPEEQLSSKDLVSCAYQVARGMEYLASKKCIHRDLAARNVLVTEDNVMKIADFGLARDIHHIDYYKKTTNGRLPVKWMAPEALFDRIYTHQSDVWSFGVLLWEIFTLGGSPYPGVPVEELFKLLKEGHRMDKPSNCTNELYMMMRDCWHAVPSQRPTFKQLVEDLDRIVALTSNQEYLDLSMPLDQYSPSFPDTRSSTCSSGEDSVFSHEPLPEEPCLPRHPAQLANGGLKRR

Row | ZtSH2 response of FGFR1 pYtag-expressing cells [2] | Molecule | EGFR activity dynamics after low-affinity ligand [1]
1 |  | EPGN: epigen, low-affinity EGFR ligand (protein, UniProt Q6UW88 23-154, looked up) Epigen: AAVTVTPPITAQQGNWTVNKTEADNIEGPIALKFSHLCLEDHNSYCINGACAFHHELEKAICRCFTGYTGERCEHLTLTSYAVDSYEKYIAIGIGVGLLLSGFLVIFYCYIRKRCLKLKSPYNVCSGERRPL | rapid rise in EGFR activity followed by a plateau within minutes
2 | induced cytosolic clearance of ZtSH2 | FGF4: activating ligand used to stimulate FGFR1 pYtag-expressing cells (protein, UniProt P08620 31-206, looked up) Fibroblast growth factor 4: APTAPNGTLEAELERRWESLVALSLARLPVAAQPKEAAVQSGAGDYLLGIKRLRRLYCNVGIGFHLQALPDGRIGGAHADTRDSLLELSPVERGVVSIFGVASRFFVAMSSKGKLYGSPFFTDECTFKEILLPNNYNAYESYKYPGMFIALSKNGKTKKGNRVSPTMKVTHFLPRL | 
